In patent EP2385124A2:

Target: GST-DLG1 PDZ domains 1-2 fusion protein (human) (UniProt Q12959)
Assay: competition G assay, 100 uM unlabeled 8-mer against 20 uM biotin-labeled AA2L on GST-DLG1

- percent inhibition: > 50%
Substance: eight amino acid CLASP-2 peptide MTSSSSVV (unlabeled)
